Test results taken from article PMC12330381, “Evolutionarily diverse caveolins share a common structural framework built around amphipathic disks” (The Journal of Cell Biology, 2025).
Values belong to the molecule of their own block, whether it stands above or below them.

Key:
[1] = target: S. rosetta caveolin (Salpingoeca rosetta); assay: cryo-EM structure; single-particle cryo-EM of the complex purified in C12M detergent; C11 symmetry applied in the final refinement
[2] = target: the molecule itself; assay: as above

stoichiometry N [1]: 11
Molecule: S. rosetta caveolin (natural protein)

B1: S. purpuratus caveolin (natural protein, Strongylocentrotus purpuratus, UniProt A0A7M7T4C2 1-159, looked up)
chain: MELIHPENGPSGTVQVPLIQGVDQSDTEDVYRLSPHVTTGFADTFKESNDIMGFSFMEKVNGAIYKYTHFAFYAVLNLLLAPFIAFSFGLSFAVMHFAVVWFVQPIMKLYYVWLRVFNLAYEPALRLVCDPIHRSIALILSGIKGQFKMNSSDVKTSQV
notes: caveolin of Strongylocentrotus purpuratus (purple sea urchin), UniProt A0A7M7T4C2, entire polypeptide (residues 1-159); residues 29-152 modelled in the cryo-EM map; Cloned between NdeI and XhoI of pET20b(+) with a reverse primer without stop codon, so the His tag is probably C-terminal (surmised); also called Strongylocentrotus purpuratus caveolin; Type I-CAV; source: E. coli BL21, purified from …
stoichiometry N [2]: 11
